Common to all, as to assay: BIAcore
A general note: Surface plasmon resonance follows binding to a sensor surface in real time, without labels.

Assay [1] deals with T1, recombinant human IL-12 (rhIL-12) (human, UniProt P29459 23-219; P29460 23-328).
T1 chain 1: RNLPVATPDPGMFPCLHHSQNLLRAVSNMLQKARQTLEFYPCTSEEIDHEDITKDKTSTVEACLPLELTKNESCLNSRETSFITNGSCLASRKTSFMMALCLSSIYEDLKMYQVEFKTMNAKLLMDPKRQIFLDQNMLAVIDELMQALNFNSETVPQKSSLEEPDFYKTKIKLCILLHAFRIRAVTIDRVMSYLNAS
T1 chain 2: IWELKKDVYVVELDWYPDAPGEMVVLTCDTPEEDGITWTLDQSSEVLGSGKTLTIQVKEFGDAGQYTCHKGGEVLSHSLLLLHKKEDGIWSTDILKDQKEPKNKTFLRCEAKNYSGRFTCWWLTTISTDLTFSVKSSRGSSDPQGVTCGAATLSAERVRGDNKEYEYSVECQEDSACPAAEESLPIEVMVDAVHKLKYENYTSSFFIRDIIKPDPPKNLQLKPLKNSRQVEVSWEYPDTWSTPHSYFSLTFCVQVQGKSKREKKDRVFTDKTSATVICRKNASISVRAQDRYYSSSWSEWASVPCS

The target of assay [2] is T2, recombinant human interleukin 12 (p40/p35 heterodimer) (human, UniProt P29460 23-328; P29459 23-219).
T2 chain 1: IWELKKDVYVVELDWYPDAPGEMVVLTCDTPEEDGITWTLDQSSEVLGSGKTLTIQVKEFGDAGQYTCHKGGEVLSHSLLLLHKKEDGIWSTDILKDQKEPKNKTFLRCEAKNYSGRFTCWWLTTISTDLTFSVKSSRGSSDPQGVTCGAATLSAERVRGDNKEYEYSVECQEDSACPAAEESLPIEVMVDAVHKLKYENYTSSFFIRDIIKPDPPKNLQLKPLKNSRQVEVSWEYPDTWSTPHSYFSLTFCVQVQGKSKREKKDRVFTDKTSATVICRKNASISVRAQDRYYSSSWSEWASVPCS
T2 chain 2: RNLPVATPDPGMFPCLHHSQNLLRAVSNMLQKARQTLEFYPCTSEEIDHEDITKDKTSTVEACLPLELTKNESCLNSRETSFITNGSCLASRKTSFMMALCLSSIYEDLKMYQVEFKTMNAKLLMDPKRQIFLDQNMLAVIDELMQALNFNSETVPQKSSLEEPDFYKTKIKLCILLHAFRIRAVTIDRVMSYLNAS

Assay [3] deals with T1, recombinant human IL-12 (rhIL-12).

Like-named read-outs stand apart in the source and are kept apart here.

Broadly, the koff is the first-order rate constant of dissociation. For the molecule PNDQRPS [Y61 L50 P], the koff in assay [1] worked out at 0.00041 s⁻¹.
Take FIRYDGSMKYYADSVKG [Y61 H56 M]: the koff in assay [2] stood at 0.000383 s⁻¹.
For the molecule FIRYDGSYKYYADSVKG [Y61 H56 Y], the koff in assay [2] stood at 0.00039 s⁻¹.
SGGRSNIGSNDVK [Y61 L32 D]: the koff in assay [3] came to 0.000252 s⁻¹.
Turning to RNDQRPS [Y61 L50 R], in assay [1], the koff is 0.000444 s⁻¹.
On to GNDTRPS [Y61 L53 T], for which the koff in assay [1] worked out at 0.000834 s⁻¹.
Take HNDQRPS [Y61 L50 H]: the koff in assay [1] was determined as 0.000761 s⁻¹.
Regarding FIRYDGSHKYYADSVKG [Y61 H56 H], the koff in assay [2] is 0.00042 s⁻¹.
On to GNDARPS [Y61 L53 A], for which, in assay [1], the koff worked out at 0.000554 s⁻¹.
Consider SGGRSNIGSNYVK [Y61 L32 Y], for which the koff in assay [3] was found to be 0.000213 s⁻¹.
As to SGGRSNIGSKTVK [Y61 L31 K], in assay [3], the koff came to 0.000331 s⁻¹.
Still for that read-out and setting: with SGGRSNIGRNTVK [Y61 L30 R] the figure was 0.000182 s⁻¹.
As to FIRYDFSNKYYADSVKG [Y61 H54 F], in assay [2], the koff was found to be 0.000663 s⁻¹.
Regarding FIRYDGSNKFYADSVKG [Y61 H58 F], the koff in assay [2] came to 0.000794 s⁻¹.
Turning to SGGRSNIGSSTVK [Y61 L31 S], the off-rate constant (koff) in assay [3] came out at 0.000392 s⁻¹.
In the case of FIRYDGSNKVYADSVKG [Y61 H58 V], the off-rate constant (koff) in assay [2] was found to be 0.000524 s⁻¹.
As to NNDQRPS [Y61 L50 N], the koff in assay [1] came to 0.000305 s⁻¹.
As to INDQRPS [Y61 L50 I], the koff in assay [1] was 0.0012 s⁻¹.
SGGRSNIGSNSVK [Y61 L32 S]: the koff in assay [3] was determined as 0.00191 s⁻¹.
As to GNDPRPS [Y61 L53 P], the koff in assay [1] was found to be 0.000974 s⁻¹.
In the case of GNDYRPS [Y61 L53 Y], the koff in assay [1] was found to be 0.000733 s⁻¹.
In the case of SGGRSNIGKNTVK [Y61 L30 K], the koff in assay [3] was 0.000346 s⁻¹.
For the molecule DNDQRPS [Y61 L50 D], the koff in assay [1] was determined as 0.000348 s⁻¹.
Take SGGRSNIGSNNVK [Y61 L32 N]: the off-rate (koff) in assay [3] turned out to be 0.00197 s⁻¹.
As for FIRYDGSTKYYADSVKG [Y61 H56 T], the koff in assay [2] stood at 0.000235 s⁻¹.
For SNDQRPS [Y61 L50 S], the koff in assay [1] worked out at 0.000286 s⁻¹.
Consider QNDQRPS [Y61 L50 Q], for which the koff in assay [1] was determined as 0.000348 s⁻¹.
Same read-out and setting: the value for TNDQRPS [Y61 L50 T] was 0.000272 s⁻¹.
Take SGGRSNIGSETVK [Y61 L31 E]: the koff in assay [3] stood at 0.000384 s⁻¹.
With MNDQRPS [Y61 L50 M], the koff in assay [1] amounted to 0.000953 s⁻¹.
For the molecule SGGRSNIGSQTVK [Y61 L31 Q], the koff in assay [3] is 0.000292 s⁻¹.
As to LNDQRPS [Y61 L50 L], the koff in assay [1] came to 0.000616 s⁻¹.
With SGGRSNIGSNRVK [Y61 L32 R], the koff in assay [3] came out at 0.0069 s⁻¹.
For the molecule SGGRSNIGPNTVK [Y61 L30 P], in assay [3], the koff was 0.00025 s⁻¹.
For SGGRSNIGTNTVK [Y61 L30 T], in assay [3], the koff amounted to 0.000226 s⁻¹.
Consider ENDQRPS [Y61 L50 E], for which the koff in assay [1] is 0.000617 s⁻¹.
Turning to FIRYDGSNKLYADSVKG [Y61 H58 L], in assay [2], the koff was determined as 0.00073 s⁻¹.
Regarding FIRYDGSLKYYADSVKG [Y61 H56 L], the koff in assay [2] was found to be 0.000264 s⁻¹.
For SGGRSNIGSDTVK [Y61 L31 D], the off-rate (koff) in assay [3] was determined as 0.00058 s⁻¹.
Take SGGRSNIGSNHVK [Y61 L32 H]: the koff in assay [3] was found to be 0.00026 s⁻¹.
With ANDQRPS [Y61 L50 A], the koff in assay [1] was 0.000372 s⁻¹.
On to KNDQRPS [Y61 L50 K], for which, in assay [1], the koff worked out at 0.00243 s⁻¹.
Turning to FIRYDGSNKEYADSVKG [Y61 H58 E], in assay [2], the koff came out at 0.000415 s⁻¹.
CNDQRPS [Y61 L50 C]: in assay [1], the koff turned out to be 0.000467 s⁻¹.
Regarding VNDQRPS [Y61 L50 V], in assay [1], the koff was found to be 0.000385 s⁻¹.
Regarding FNDQRPS [Y61 L50 F], in assay [1], the koff was determined as 0.0348 s⁻¹.
SGGRSNIGSTTVK [Y61 L31 T]: the koff in assay [3] was found to be 0.000309 s⁻¹.
Turning to SGGRSNIGSNIVK [Y61 L32 I], the koff in assay [3] amounted to 0.00154 s⁻¹.
Turning to SGGRSNIGSNVVK [Y61 L32 V], in assay [3], the koff was determined as 0.00164 s⁻¹.
Turning to SGGRSNIGCNTVK [Y61 L30 C], the off-rate (koff) in assay [3] amounted to 0.000186 s⁻¹.
In the case of GNDIRPS [Y61 L53 I], in assay [1], the koff was determined as 0.000855 s⁻¹.
For SGGRSNIGDNTVK [Y61 L30 D], in assay [3], the koff amounted to 0.00022 s⁻¹.
For the molecule GNDRRPS [Y61 L53 R], in assay [1], the dissociation rate constant (koff) amounted to 0.000614 s⁻¹.
On to SGGRSNIGSYTVK [Y61 L31 Y], for which, in assay [3], the off-rate (koff) amounted to 0.000357 s⁻¹.
In the case of FIRYDGSPKYYADSVKG [Y61 H56 P], the koff in assay [2] amounted to 0.000299 s⁻¹.
With SGGRSNIGSNPVK [Y61 L32 P], the koff in assay [3] was found to be 0.000424 s⁻¹.
On to FIRYDGSFKYYADSVKG [Y61 H56 F], for which, in assay [2], the koff worked out at 0.000345 s⁻¹.
Regarding WNDQRPS [Y61 L50 W], in assay [1], the koff is 0.000382 s⁻¹.
For FIRYDGSIKYYADSVKG [Y61 H56 I], the koff in assay [2] was 0.000169 s⁻¹.
GNDSRPS [Y61 L53 S]: the koff in assay [1] was found to be 0.000866 s⁻¹.
As for SGGRSNIGSNCVK [Y61 L32 C], in assay [3], the koff worked out at 0.00381 s⁻¹.
For SGGRSNIGSNLVK [Y61 L32 L], the koff in assay [3] came out at 0.00215 s⁻¹.
Same read-out and setting: with SGGRSNIGSMTVK [Y61 L31 M] the figure was 0.000174 s⁻¹.

Source of the values: patent US20110123544A1 (published 2011).
